Assay results reported in patent US8840891 (RSR, dated 2014).
Like-named read-outs stand apart in the source and are kept apart here.

How the values were obtained:
Assay in all cases: cell-based or functional assay
[1] = molecular target: human TSHR, wild type, expressed on CHO cells (human) (UniProt P16473)
[2] = molecular target: wild type human TSHR (thyrotropin receptor) expressed on CHO cells (human) (UniProt P16473)
[3] = molecular target: TSHR with Phe130 mutated to Alanine expressed on CHO cells (human) (UniProt P16473)
[4] = molecular target: wild type human TSHR (thyrotropin receptor) expressed on CHO cells (human) (UniProt P16473); remark: listed apart in the source

- % inhibition of basal cyclic AMP production; Exp 2; 5C9 IgG 0.001 µg/mL [1]: 10.8%
- % inhibition of basal cyclic AMP production; Exp 2; 5C9 IgG 0.01 µg/mL [1]: 37.2%
- % inhibition of basal cyclic AMP production; Exp 2; 5C9 IgG 0.1 µg/mL [1]: 45.7%
- % inhibition of basal cyclic AMP production; Exp 2; 5C9 IgG 1 µg/mL [1]: 71%
- % inhibition of basal cyclic AMP production; Exp 2; 5C9 IgG 10 µg/mL [1]: 74.6%
- % inhibition of basal cyclic AMP production; Exp 2; 5C9 IgG 100 µg/mL [1]: 54.9%
- % inhibition of basal cyclic AMP production; Exp 3; 5C9 IgG 0.1 µg/mL [1]: 1%
- % inhibition of basal cyclic AMP production; Exp 3; 5C9 IgG 1 µg/mL [1]: 61%
- % inhibition of basal cyclic AMP production; Exp 3; 5C9 IgG 10 µg/mL [1]: 59%
- % inhibition of basal cyclic AMP production; Exp 3; 5C9 IgG 100 µg/mL [1]: 56%
- cyclic AMP; Exp 1; 5C9 1 µg/mL + TSH 3 ng/mL [1]: 13.9 pmol/mL
- cyclic AMP; Exp 1; 5C9 10 µg/mL + TSH 3 ng/mL [1]: 3.7 pmol/mL
- cyclic AMP; Exp 1; 5C9 10 µg/mL only [1]: 0.45 pmol/mL
- cyclic AMP; Exp 1; native human TSH 100 ng/mL + 5C9 IgG 0.001 µg/mL [1]: 36 pmol/mL
- cyclic AMP; Exp 1; native human TSH 100 ng/mL + 5C9 IgG 0.01 µg/mL [1]: 18 pmol/mL
- cyclic AMP; Exp 1; native human TSH 100 ng/mL + 5C9 IgG 0.1 µg/mL [1]: 0.2 pmol/mL
- cyclic AMP; Exp 1; native human TSH 100 ng/mL + 5C9 IgG 1.0 µg/mL [1]: 0.14 pmol/mL
- cyclic AMP; Exp 1; native human TSH 100 ng/mL + 5C9 IgG 10 µg/mL [1]: 0.11 pmol/mL
- cyclic AMP; Exp 1; native human TSH 100 ng/mL + 5C9 IgG 100 µg/mL [1]: 0.16 pmol/mL
- cyclic AMP; Exp 1; recombinant human TSH 100 ng/mL + 5C9 IgG 0.001 µg/mL [1]: 13.6 pmol/mL
- cyclic AMP; Exp 1; recombinant human TSH 100 ng/mL + 5C9 IgG 0.01 µg/mL [1]: 8.13 pmol/mL
- cyclic AMP; Exp 1; recombinant human TSH 100 ng/mL + 5C9 IgG 0.1 µg/mL [1]: 0.12 pmol/mL
- cyclic AMP; Exp 1; recombinant human TSH 100 ng/mL + 5C9 IgG 1.0 µg/mL [1]: 0.1 pmol/mL
- cyclic AMP; Exp 1; recombinant human TSH 100 ng/mL + 5C9 IgG 10 µg/mL [1]: 0.12 pmol/mL
- cyclic AMP; Exp 1; recombinant human TSH 100 ng/mL + 5C9 IgG 100 µg/mL [1]: 0.19 pmol/mL
- cyclic AMP; Exp 2; 5C9 1 µg/mL + TSH 3 ng/mL [1]: 6.1 pmol/mL
- cyclic AMP; Exp 2; 5C9 10 µg/mL + TSH 3 ng/mL [1]: 3.1 pmol/mL
- cyclic AMP; Exp 2; 5C9 10 µg/mL only [1]: 0.4 pmol/mL
- cyclic AMP; Exp 2; native human TSH 100 ng/mL + 5C9 IgG 0.001 µg/mL [1]: 37.6 pmol/mL
- cyclic AMP; Exp 2; native human TSH 100 ng/mL + 5C9 IgG 0.01 µg/mL [1]: 34.4 pmol/mL
- cyclic AMP; Exp 2; native human TSH 100 ng/mL + 5C9 IgG 0.1 µg/mL [1]: 15.8 pmol/mL
- cyclic AMP; Exp 2; native human TSH 100 ng/mL + 5C9 IgG 1.0 µg/mL [1]: 0.13 pmol/mL
- cyclic AMP; Exp 2; native human TSH 100 ng/mL + 5C9 IgG 10 µg/mL [1]: 0.18 pmol/mL
- cyclic AMP; Exp 2; native human TSH 100 ng/mL + 5C9 IgG 100 µg/mL [1]: 0.21 pmol/mL
- cyclic AMP; Exp 2; native porcine TSH 0.3 ng/mL + 5C9 IgG 0.001 µg/mL [1]: 32.7 pmol/mL
- cyclic AMP; Exp 2; native porcine TSH 0.3 ng/mL + 5C9 IgG 0.01 µg/mL [1]: 28.2 pmol/mL
- cyclic AMP; Exp 2; native porcine TSH 0.3 ng/mL + 5C9 IgG 0.1 µg/mL [1]: 18 pmol/mL
- cyclic AMP; Exp 2; native porcine TSH 0.3 ng/mL + 5C9 IgG 1.0 µg/mL [1]: 2.14 pmol/mL
- cyclic AMP; Exp 2; native porcine TSH 0.3 ng/mL + 5C9 IgG 10 µg/mL [1]: 0.2 pmol/mL
- cyclic AMP; Exp 2; native porcine TSH 0.3 ng/mL + 5C9 IgG 100 µg/mL [1]: 0.18 pmol/mL
- cyclic AMP; Exp 2; recombinant human TSH 100 ng/mL + 5C9 IgG 0.001 µg/mL [1]: 20 pmol/mL
- cyclic AMP; Exp 2; recombinant human TSH 100 ng/mL + 5C9 IgG 0.01 µg/mL [1]: 20.6 pmol/mL
- cyclic AMP; Exp 2; recombinant human TSH 100 ng/mL + 5C9 IgG 0.1 µg/mL [1]: 7.39 pmol/mL
- cyclic AMP; Exp 2; recombinant human TSH 100 ng/mL + 5C9 IgG 1.0 µg/mL [1]: 0.07 pmol/mL
- cyclic AMP; Exp 2; recombinant human TSH 100 ng/mL + 5C9 IgG 10 µg/mL [1]: 0.07 pmol/mL
- cyclic AMP; Exp 2; recombinant human TSH 100 ng/mL + 5C9 IgG 100 µg/mL [1]: 0.11 pmol/mL
- cyclic AMP; Exp 3; 5C9 0.01 µg/mL + TSH 3 ng/mL [1]: 33.9 pmol/mL
- cyclic AMP; Exp 3; 5C9 0.1 µg/mL + TSH 3 ng/mL [1]: 18.7 pmol/mL
- cyclic AMP; Exp 3; 5C9 1 µg/mL + TSH 3 ng/mL [1]: 5.4 pmol/mL
- cyclic AMP; Exp 3; 5C9 10 µg/mL + TSH 3 ng/mL [1]: 1.9 pmol/mL
- cyclic AMP; Exp 3; 5C9 100 µg/mL + TSH 3 ng/mL [1]: 1.4 pmol/mL
- cyclic AMP; Exp 3; 5C9 100 µg/mL only [1]: 0.5 pmol/mL
- cyclic AMP; Exp 3; native human TSH 100 ng/mL + 5C9 IgG 0.001 µg/mL [1]: 36 pmol/mL
- cyclic AMP; Exp 3; native human TSH 100 ng/mL + 5C9 IgG 0.01 µg/mL [1]: 28.4 pmol/mL
- cyclic AMP; Exp 3; native human TSH 100 ng/mL + 5C9 IgG 0.1 µg/mL [1]: 7.22 pmol/mL
- cyclic AMP; Exp 3; native human TSH 100 ng/mL + 5C9 IgG 1.0 µg/mL [1]: 0.67 pmol/mL
- cyclic AMP; Exp 3; native human TSH 100 ng/mL + 5C9 IgG 10 µg/mL [1]: 0.8 pmol/mL
- cyclic AMP; Exp 3; native human TSH 100 ng/mL + 5C9 IgG 100 µg/mL [1]: 1.35 pmol/mL
- cyclic AMP; Exp 3; native porcine TSH 0.3 ng/mL + 5C9 IgG 0.001 µg/mL [1]: 38.2 pmol/mL
- cyclic AMP; Exp 3; native porcine TSH 0.3 ng/mL + 5C9 IgG 0.01 µg/mL [1]: 26.6 pmol/mL
- cyclic AMP; Exp 3; native porcine TSH 0.3 ng/mL + 5C9 IgG 0.1 µg/mL [1]: 10.1 pmol/mL
- cyclic AMP; Exp 3; native porcine TSH 0.3 ng/mL + 5C9 IgG 1.0 µg/mL [1]: 2.28 pmol/mL
- cyclic AMP; Exp 3; native porcine TSH 0.3 ng/mL + 5C9 IgG 10 µg/mL [1]: 0.68 pmol/mL
- cyclic AMP; Exp 3; native porcine TSH 0.3 ng/mL + 5C9 IgG 100 µg/mL [1]: 1.03 pmol/mL
- cyclic AMP; Exp 3; recombinant human TSH 100 ng/mL + 5C9 IgG 0.001 µg/mL [1]: 25.6 pmol/mL
- cyclic AMP; Exp 3; recombinant human TSH 100 ng/mL + 5C9 IgG 0.01 µg/mL [1]: 22.9 pmol/mL
- cyclic AMP; Exp 3; recombinant human TSH 100 ng/mL + 5C9 IgG 0.1 µg/mL [1]: 1.18 pmol/mL
- cyclic AMP; Exp 3; recombinant human TSH 100 ng/mL + 5C9 IgG 1.0 µg/mL [1]: 0.81 pmol/mL
- cyclic AMP; Exp 3; recombinant human TSH 100 ng/mL + 5C9 IgG 10 µg/mL [1]: 0.74 pmol/mL
- cyclic AMP; Exp 3; recombinant human TSH 100 ng/mL + 5C9 IgG 100 µg/mL [1]: 0.88 pmol/mL
- cyclic AMP; Exp 4; 5C9 0.1 µg/mL + TSH 0.3 ng/mL [1]: 6.2 pmol/mL
- cyclic AMP; Exp 4; 5C9 1 µg/mL + TSH 0.3 ng/mL [1]: 1.65 pmol/mL
- cyclic AMP; Exp 4; 5C9 10 µg/mL + TSH 0.3 ng/mL [1]: 0.23 pmol/mL
- cyclic AMP; Exp 4; 5C9 100 µg/mL + TSH 0.3 ng/mL [1]: 0.29 pmol/mL
- cyclic AMP; Exp 4; 5C9 100 µg/mL only [1]: 0.15 pmol/mL
- cyclic AMP; Exp 5; 5C9 0.1 µg/mL + TSH 0.3 ng/mL [1]: 12.4 pmol/mL
- cyclic AMP; Exp 5; 5C9 1 µg/mL + TSH 0.3 ng/mL [1]: 2.57 pmol/mL
- cyclic AMP; Exp 5; 5C9 5 µg/mL + TSH 0.3 ng/mL [1]: 1.21 pmol/mL
- cyclic AMP; Exp 5; 5C9 10 µg/mL + TSH 0.3 ng/mL [1]: 1.17 pmol/mL
- cyclic AMP; Exp 5; 5C9 10 µg/mL only [1]: 0.38 pmol/mL
- cyclic AMP; TSMAb 1 1 µg/mL + 5C9 IgG 100 µg/mL [1]: 1.24 pmol/mL
- cyclic AMP; TSMAb 2 1 µg/mL + 5C9 IgG 100 µg/mL [1]: 2.26 pmol/mL
- cyclic AMP; TSMAb 4 10 ng/mL + 5C9 IgG 100 µg/mL [1]: 2.2 pmol/mL
- cyclic AMP; TSMAb 5 100 ng/mL + 5C9 IgG 100 µg/mL [1]: 0.85 pmol/mL
- cyclic AMP; TSMAb 7 100 ng/mL + 5C9 IgG 100 µg/mL [1]: 1.26 pmol/mL
- Cyclic AMP produced; 5C9 0.01 µg/mL + TSH (fmol/cell well) [2]: 16700
- Cyclic AMP produced; 5C9 0.1 µg/mL + TSH (fmol/cell well) [2]: 3510
- Cyclic AMP produced; 5C9 1.0 µg/mL + TSH (fmol/cell well) [2]: 454
- Cyclic AMP produced; 5C9 10 µg/mL + TSH (fmol/cell well) [2]: 289
- Cyclic AMP produced; 5C9 100 µg/mL + TSH (fmol/cell well) [2]: 223
- Cyclic AMP produced; 5C9 100 µg/mL only (fmol/cell well) [2]: 234
- Cyclic AMP produced; 5C9 0.01 µg/mL + TSH (fmol/cell well) [3]: 17400
- Cyclic AMP produced; 5C9 0.1 µg/mL + TSH (fmol/cell well) [3]: 9020
- Cyclic AMP produced; 5C9 1.0 µg/mL + TSH (fmol/cell well) [3]: 2240
- Cyclic AMP produced; 5C9 10 µg/mL + TSH (fmol/cell well) [3]: 1140
- Cyclic AMP produced; 5C9 100 µg/mL + TSH (fmol/cell well) [3]: 603
- Cyclic AMP produced; 5C9 100 µg/mL only (fmol/cell well) [3]: 446
- Mutated/wild type (%); 5C9 0.01 µg/mL + TSH [3]: 114%
- Mutated/wild type (%); 5C9 0.1 µg/mL + TSH [3]: 332%
- Mutated/wild type (%); 5C9 1.0 µg/mL + TSH [3]: 562%
- Mutated/wild type (%); 5C9 10 µg/mL + TSH [3]: 754%
- Mutated/wild type (%); 5C9 100 µg/mL + TSH [3]: 251%
- Mutated/wild type (%); 5C9 100 µg/mL only [3]: 134%
- Cyclic AMP produced; 5C9 0.01 µg/mL + TSH (fmol/cell well) [4]: 15300
- Cyclic AMP produced; 5C9 0.1 µg/mL + TSH (fmol/cell well) [4]: 2710
- Cyclic AMP produced; 5C9 1.0 µg/mL + TSH (fmol/cell well) [4]: 398
- Cyclic AMP produced; 5C9 10 µg/mL + TSH (fmol/cell well) [4]: 151
- Cyclic AMP produced; 5C9 100 µg/mL + TSH (fmol/cell well) [4]: 240
- Cyclic AMP produced; 5C9 100 µg/mL only (fmol/cell well) [4]: 334
B1: 5C9 IgG (human monoclonal autoantibody to the TSHR) (antibody, from another filing, V domains shown)
VH: EVQLVESGGGLIQPGGSLRLSCAASGFTVSSNYMSWVRQAPGKGLEWVSVTYSGGSTSYADSVKGRFTISRDNSKNTLYLQMNSLRAEDTAVYYCARGGRYCSSISCYARSGCDYWGQGTLVTVSS
VL: AIQMTQSPSSLSASVGDRVTITCRASQSISNYLNWYQQKPGKAPKLLIYAASSLQSGVPSRFSGSGSGTDFTLTISSLQPEDFATYYCQQSYSSPSTTFGQGTKLEIK
